Reference: paper PMC3776929 (Cell, 2013)

B1: Swc5 (natural protein, S. cerevisiae, UniProt P38326 1-303, looked up)
chain: MPEVETKIIPNEKEDEDEDGYIEEEDEDFQPEKDKLGGGSDDSDASDGGDDYDDGVNRDKGRNKVDYSRIESESGGLIKTRRARQAEEEYAKTHKYESLTVESIPAKVNSIWEELQEASKNRLLSSSGKVGSVLDGSKEARSTTAAQQEDKILIERNYKFAGETVHEKKWVSRSSAEGQEYLNSLKFKQQAPAAPVQLEKAVRTKSNESRQHLRRPLKRPPLLEQIISGGLRPKLTTLEKSQLDWASYVDRAGLNDELVLHNKDGFLARQEFLQRVGSAEDERYKELRRQQLAQQLQQDSEAS
notes: Swc5, subunit of SWR1, S. cerevisiae; also called small subunit Swc5; source: endogenous, S. cerevisiae; co-purified in the SWR1 complex
B2: Yaf9 (natural protein, S. cerevisiae, UniProt P53930 1-226, looked up)
chain: MAPTISKRIKTLSVSRPIIYGNTAKKMGSVKPPNAPAEHTHLWTIFVRGPQNEDISYFIKKVVFKLHDTYPNPVRSIEAPPFELTETGWGEFDINIKVYFVEEANEKVLNFYHRLRLHPYANPVPNSDNGNEQNTTDHNSKDAEVSSVYFDEIVFNEPNEEFFKILMSRPGNLLPSNKTDDCVYSKQLEQEEIDRIEIGIEKVDKEIDELKQKLENLVKQEAINGS
notes: Yaf9, N-Module subunit of SWR1, S. cerevisiae; source: endogenous, S. cerevisiae; co-purified in the SWR1 complex

Tests used:
[1] = biological target: T1, Act1 (S. cerevisiae, UniProt P60010 1-375); assay: cross-linking; ∼45 μg affinity-purified SWR1 cross-linked with 1 mM DSS d0/d12 in SWR1 buffer, 37°C, 30 min; trypsin, SEC enrichment, LC-MS/MS, xQuest (CX-MS); details: both partners purified
T1 construct: Act1 (actin), N-Module subunit of SWR1, S. cerevisiae; source: endogenous, S. cerevisiae; co-purified in the SWR1 complex

[2] = biological target: T2, Swr1, FLAG-tagged catalytic subunit of the SWR1 complex (S. cerevisiae, UniProt Q05471 1-1514); assay: co-IP; FLAG affinity purification of SWR1 (or a subcomplex) from S. cerevisiae, eluted with 3× FLAG peptide; SDS-PAGE (4%-12% Bis-Tris), Coomassie or SYPRO Orange stain; band intensities normalised for protein size for the stoichiometry; details: partners not purified
T2 construct: Swr1, catalytic ATPase subunit of the SWR1 complex, S. cerevisiae; HSA domain in the N-terminal half, split ATPase domain with long insert in the C-terminal half; also called Swr1-3xFLAG; Swr1 ATPase
T2 sequence (Q05471 whole entry, the tested form may be a part, one chain of several): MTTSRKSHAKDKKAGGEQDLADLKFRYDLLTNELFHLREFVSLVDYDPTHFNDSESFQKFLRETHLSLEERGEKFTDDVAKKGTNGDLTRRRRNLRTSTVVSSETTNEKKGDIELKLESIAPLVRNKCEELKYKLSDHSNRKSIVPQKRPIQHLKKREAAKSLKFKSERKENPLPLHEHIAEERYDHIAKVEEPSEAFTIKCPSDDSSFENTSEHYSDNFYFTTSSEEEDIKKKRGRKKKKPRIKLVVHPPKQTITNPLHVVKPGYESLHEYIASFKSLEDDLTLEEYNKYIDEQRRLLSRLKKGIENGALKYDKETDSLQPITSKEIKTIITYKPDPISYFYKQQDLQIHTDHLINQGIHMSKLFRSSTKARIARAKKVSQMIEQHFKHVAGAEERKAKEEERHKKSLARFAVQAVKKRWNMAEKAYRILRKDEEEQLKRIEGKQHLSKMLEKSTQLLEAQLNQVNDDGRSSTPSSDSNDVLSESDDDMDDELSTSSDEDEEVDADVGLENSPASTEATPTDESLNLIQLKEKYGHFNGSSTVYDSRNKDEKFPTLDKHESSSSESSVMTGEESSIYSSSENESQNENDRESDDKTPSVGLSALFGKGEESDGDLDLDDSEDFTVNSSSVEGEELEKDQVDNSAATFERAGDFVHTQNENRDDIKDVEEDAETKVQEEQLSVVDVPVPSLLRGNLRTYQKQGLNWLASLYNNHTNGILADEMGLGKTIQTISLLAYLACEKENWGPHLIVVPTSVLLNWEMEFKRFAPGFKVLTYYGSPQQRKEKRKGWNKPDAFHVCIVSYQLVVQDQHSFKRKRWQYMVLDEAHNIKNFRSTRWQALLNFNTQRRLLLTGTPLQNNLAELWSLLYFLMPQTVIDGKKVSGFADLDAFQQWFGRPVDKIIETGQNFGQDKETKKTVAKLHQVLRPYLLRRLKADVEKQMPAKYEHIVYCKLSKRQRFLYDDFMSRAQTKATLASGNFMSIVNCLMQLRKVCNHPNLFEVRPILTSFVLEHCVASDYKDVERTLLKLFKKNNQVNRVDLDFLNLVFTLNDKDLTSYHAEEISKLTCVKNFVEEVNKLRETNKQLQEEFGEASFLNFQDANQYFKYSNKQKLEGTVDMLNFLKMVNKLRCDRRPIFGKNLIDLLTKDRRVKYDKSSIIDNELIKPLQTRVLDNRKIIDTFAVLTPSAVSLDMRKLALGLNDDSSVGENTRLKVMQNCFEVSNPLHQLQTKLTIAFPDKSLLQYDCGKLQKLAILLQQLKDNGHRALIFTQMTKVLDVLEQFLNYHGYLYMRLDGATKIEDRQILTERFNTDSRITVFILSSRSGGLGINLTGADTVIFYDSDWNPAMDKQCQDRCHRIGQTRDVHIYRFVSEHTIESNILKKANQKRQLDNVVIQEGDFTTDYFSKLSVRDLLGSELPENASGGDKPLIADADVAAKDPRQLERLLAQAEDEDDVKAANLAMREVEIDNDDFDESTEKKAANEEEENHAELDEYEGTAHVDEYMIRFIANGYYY

[3] = biological target: B1; assay: cross-linking; ∼45 μg affinity-purified SWR1 cross-linked with 1 mM DSS d0/d12 in SWR1 buffer, 37°C, 30 min; trypsin, SEC enrichment, LC-MS/MS, xQuest (CX-MS); details: both partners purified

## B1
[1]
  binding result: binds
[2]
  binding result: binds

## B2
[3]
  binding result: binds
